The target of this series is OsMADS57 (Oryza sativa, UniProt Q6Z6W2 1-241). As to the kind of experiment: EMSA; competed by unlabeled probe; LightShift Chemiluminescent EMSA Kit (Thermo); buffer, salt, pH and temperature not stated. To be noted: protein: recombinant; tags: His (pET32a(+) vector-encoded tags); chain copies: 2; label: biotin 3' end; blunt.

This note sets out measurements from PMC6538746, “Rice transcription factor OsMADS57 regulates plant height by modulating gibberellin catabolism”.

Chain of OsMADS57 (Q6Z6W2 whole entry): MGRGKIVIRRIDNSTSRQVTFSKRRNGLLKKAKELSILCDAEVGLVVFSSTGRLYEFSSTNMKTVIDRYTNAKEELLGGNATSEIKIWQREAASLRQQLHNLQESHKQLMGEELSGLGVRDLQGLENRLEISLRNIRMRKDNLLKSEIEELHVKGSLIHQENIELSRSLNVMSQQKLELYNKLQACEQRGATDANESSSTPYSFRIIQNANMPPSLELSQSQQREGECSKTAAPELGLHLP

B1: EUI1 promoter CArG probe (dsDNA)
DNA 1: GCCTTTCCCTTTGTTACTGTTGCATATAAAAGATCATCAATGT
DNA 2: ACATTGATGATCTTTTATATGCAACAGTAACAAAGGGAAAGGC
For B1, the binding result is “binds”.

B2: OsGA2ox3 promoter CArG probe (dsDNA)
DNA 1: TAGCACGAGGGAAAACCCTTTAAAAAGACAGACAAGGCAGACG
DNA 2: CGTCTGCCTTGTCTGTCTTTTTAAAGGGTTTTCCCTCGTGCTA
As to B2, the binding result was “binds”.
